Publication PMC4770226

How the values were obtained:
[1] = target: Ku70/Ku80 heterodimer, wild-type (human, UniProt P12956;P13010 1-609;1-732); experiment: pull-down
Ku70-5A/Ku80 heterodimer = Ku70-5A/Ku80 heterodimer (human, UniProt P12956;P13010 1-609;1-732, T305A;S306A;T307A;S314A;T316A;Ku70:); experiment: pull-down
Ku70-5A/Ku80 heterodimer, sequence (P12956 whole entry T305A/S306A/T307A/S314A/T316A, chain 1 of 2): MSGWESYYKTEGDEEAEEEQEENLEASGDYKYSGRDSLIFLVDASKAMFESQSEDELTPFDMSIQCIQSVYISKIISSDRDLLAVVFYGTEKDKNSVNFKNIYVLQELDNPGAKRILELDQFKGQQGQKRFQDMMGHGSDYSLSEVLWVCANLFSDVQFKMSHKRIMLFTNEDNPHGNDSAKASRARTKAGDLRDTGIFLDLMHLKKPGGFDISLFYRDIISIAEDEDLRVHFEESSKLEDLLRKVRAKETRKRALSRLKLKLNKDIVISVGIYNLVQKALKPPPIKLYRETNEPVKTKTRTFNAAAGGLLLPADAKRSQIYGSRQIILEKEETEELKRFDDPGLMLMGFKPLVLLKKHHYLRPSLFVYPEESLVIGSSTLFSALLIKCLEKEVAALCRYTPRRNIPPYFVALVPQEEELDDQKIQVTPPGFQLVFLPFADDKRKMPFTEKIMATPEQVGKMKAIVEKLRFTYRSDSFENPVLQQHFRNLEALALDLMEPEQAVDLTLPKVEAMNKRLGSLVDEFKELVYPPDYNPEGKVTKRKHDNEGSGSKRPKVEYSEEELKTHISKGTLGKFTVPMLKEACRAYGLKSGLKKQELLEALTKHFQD
Ku70-5A/Ku80 heterodimer, sequence (P13010 whole entry, stated change not applied, chain 2 of 2): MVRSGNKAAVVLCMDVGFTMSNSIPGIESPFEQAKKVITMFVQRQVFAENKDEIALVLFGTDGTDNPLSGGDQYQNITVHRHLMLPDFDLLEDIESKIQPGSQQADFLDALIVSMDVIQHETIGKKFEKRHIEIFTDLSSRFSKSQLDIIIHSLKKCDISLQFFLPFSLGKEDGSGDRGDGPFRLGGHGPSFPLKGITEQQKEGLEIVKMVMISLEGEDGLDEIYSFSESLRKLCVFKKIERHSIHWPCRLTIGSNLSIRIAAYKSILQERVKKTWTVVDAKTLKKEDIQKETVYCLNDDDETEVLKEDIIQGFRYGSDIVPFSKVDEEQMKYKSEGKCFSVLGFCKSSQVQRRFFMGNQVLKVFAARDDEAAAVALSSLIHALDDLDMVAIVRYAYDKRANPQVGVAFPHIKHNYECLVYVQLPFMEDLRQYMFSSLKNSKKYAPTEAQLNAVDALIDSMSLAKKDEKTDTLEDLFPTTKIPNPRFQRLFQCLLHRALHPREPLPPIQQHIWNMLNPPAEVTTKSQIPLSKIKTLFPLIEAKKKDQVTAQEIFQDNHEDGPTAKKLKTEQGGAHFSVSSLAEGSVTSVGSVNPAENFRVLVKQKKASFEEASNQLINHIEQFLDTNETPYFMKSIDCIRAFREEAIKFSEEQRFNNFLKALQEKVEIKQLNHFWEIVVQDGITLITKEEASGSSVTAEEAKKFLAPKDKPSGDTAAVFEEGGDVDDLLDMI

Ku70/Ku80 heterodimer, wild-type, sequence (P12956 whole entry, chain 1 of 2): as the sequence (P12956 whole entry T305A/S306A/T307A/S314A/T316A, chain 1 of 2) above, with A305T, A306S, A307T, A314S, A316T counted along it
Ku70/Ku80 heterodimer, wild-type, sequence (P13010 whole entry, chain 2 of 2): as the sequence (P13010 whole entry, stated change not applied, chain 2 of 2) above

B1: biotin-labeled forked 22-mer dsDNA (dsDNA)
DNA 1: CGCGCCCAGCTTTCCCAGCTAATAAACTAAAAACTCCTAAGG
DNA 2: CCTTAGGAGTTTTTAGTTTATTGGGCGCG
[1]
  binding result: binds
Ku70-5A/Ku80 heterodimer
  binding result: binds
